Measured values reported in patent US20220119490A1 (Genentech, published 2022).

Tests used:
[1] = biological target: T1, PTPRD P249L variant extracellular domain (human, UniProt P23468 21-1265); experiment: extracellular interaction screen: pentameric PTPRD variant ECD on ECD-Fc prey (FIG. 5L)
T1 construct: extracellular domain; also called IG3 mutant
T1 sequence (looked up): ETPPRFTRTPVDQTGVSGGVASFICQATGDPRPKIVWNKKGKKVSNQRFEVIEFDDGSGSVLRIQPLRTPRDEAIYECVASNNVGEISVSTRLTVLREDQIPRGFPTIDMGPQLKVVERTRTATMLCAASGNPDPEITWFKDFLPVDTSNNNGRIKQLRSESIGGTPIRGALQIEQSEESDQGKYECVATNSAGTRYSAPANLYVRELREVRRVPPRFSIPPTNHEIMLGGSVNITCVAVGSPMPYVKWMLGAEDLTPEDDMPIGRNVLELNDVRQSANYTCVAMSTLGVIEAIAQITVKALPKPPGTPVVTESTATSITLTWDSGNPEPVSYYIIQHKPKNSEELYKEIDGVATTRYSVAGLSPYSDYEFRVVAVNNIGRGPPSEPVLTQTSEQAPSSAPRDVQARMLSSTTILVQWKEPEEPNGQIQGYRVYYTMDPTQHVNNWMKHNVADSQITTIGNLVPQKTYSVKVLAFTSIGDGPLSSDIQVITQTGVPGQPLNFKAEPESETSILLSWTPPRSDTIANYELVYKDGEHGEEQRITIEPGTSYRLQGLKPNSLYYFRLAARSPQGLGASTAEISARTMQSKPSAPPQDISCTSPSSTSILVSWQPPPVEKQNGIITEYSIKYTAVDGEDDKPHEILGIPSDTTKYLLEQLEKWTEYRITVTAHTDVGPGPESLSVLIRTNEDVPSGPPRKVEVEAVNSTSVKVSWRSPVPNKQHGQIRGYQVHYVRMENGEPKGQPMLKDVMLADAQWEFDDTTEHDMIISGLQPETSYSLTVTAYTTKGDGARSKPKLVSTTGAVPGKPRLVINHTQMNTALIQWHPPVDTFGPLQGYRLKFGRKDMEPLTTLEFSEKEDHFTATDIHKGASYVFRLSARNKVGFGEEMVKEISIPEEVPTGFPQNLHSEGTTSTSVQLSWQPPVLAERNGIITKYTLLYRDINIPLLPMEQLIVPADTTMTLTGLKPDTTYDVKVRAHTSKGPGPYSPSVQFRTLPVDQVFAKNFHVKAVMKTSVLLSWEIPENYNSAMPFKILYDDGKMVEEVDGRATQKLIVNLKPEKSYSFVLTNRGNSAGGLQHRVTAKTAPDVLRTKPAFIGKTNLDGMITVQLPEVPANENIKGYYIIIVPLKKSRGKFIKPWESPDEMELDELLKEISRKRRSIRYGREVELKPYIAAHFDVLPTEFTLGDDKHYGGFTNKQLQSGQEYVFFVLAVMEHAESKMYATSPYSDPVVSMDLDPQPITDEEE

[2] = biological target: T2, PTPRD ΔG61 ΔE106 variant extracellular domain (human, UniProt P23468 21-1265); experiment: as above
T2 construct: extracellular domain; meaning of the deletion notation not explained; also called IG1 mutant
T2 sequence (looked up): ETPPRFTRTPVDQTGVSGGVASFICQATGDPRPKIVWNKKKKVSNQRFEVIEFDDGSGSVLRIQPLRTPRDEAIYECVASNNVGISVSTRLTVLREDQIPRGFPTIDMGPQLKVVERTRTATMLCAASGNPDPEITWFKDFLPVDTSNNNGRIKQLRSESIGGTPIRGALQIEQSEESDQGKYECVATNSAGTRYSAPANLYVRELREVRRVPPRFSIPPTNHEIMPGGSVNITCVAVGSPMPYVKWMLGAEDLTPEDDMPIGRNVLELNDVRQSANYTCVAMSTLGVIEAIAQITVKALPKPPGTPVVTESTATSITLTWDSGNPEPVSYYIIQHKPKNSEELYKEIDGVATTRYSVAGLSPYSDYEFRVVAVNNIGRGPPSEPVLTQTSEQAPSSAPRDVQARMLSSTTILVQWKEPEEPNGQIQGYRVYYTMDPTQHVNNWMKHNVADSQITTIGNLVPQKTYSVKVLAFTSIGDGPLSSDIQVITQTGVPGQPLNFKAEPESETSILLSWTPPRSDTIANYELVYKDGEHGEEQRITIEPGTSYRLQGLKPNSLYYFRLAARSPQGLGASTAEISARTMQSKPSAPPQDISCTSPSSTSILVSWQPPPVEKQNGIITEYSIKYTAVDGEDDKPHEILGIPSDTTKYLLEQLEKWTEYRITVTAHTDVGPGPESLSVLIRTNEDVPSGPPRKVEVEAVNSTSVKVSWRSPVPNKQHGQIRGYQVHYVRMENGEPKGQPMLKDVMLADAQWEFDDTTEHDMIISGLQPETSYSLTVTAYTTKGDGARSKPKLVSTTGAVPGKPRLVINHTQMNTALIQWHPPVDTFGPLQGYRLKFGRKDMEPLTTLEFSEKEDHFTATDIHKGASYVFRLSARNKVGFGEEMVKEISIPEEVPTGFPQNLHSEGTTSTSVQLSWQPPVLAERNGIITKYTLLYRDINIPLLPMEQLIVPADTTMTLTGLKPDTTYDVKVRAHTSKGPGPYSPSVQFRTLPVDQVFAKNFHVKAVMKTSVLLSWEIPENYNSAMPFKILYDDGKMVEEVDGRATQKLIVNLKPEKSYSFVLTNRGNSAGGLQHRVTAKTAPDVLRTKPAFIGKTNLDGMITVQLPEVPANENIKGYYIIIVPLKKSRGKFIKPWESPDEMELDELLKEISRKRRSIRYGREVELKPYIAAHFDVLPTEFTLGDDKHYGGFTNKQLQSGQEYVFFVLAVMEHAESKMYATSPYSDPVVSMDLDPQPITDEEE

binding result [1]: no binding | binding result [2]: no binding
B1: LRRC4B extracellular domain (receptor, human, UniProt Q9NT99 36-576, looked up)
chain: AGGGGVAVTSAAGGGSPPATSCPVACSCSNQASRVICTRRDLAEVPASIPVNTRYLNLQENGIQVIRTDTFKHLRHLEILQLSKNLVRKIEVGAFNGLPSLNTLELFDNRLTTVPTQAFEYLSKLRELWLRNNPIESIPSYAFNRVPSLRRLDLGELKRLEYISEAAFEGLVNLRYLNLGMCNLKDIPNLTALVRLEELELSGNRLDLIRPGSFQGLTSLRKLWLMHAQVATIERNAFDDLKSLEELNLSHNNLMSLPHDLFTPLHRLERVHLNHNPWHCNCDVLWLSWWLKETVPSNTTCCARCHAPAGLKGRYIGELDQSHFTCYAPVIVEPPTDLNVTEGMAAELKCRTGTSMTSVNWLTPNGTLMTHGSYRVRISVLHDGTLNFTNVTVQDTGQYTCMVTNSAGNTTASATLNVSAVDPVAAGGTGSGGGGPGGSGGVGGGSGGYTYFTTVTVETLETQPGEEALQPRGTEKEPPGPTTDGVWGGGRPGDAAGPASSSTTAPAPRSSRPTEKAFTVPITDVTENALKDLDDVMKTTK
notes: extracellular domain; ECD-Fc prey; also called NGL-3; netrin-G ligand-3
